In article PMC12852852:

Target: hClpX E285A (human) (UniProt O76031)

Which stoichiometry N does the source give for “hClpX E285A (from UniProt O76031 57-633) (enzyme)” here?
Its stoichiometry N is 6.
